Patent US20230243836A1 (published 2023)
Blank lines part the entries; values can stand above or below the binder they belong to.

Tests used:
[1] = biological target: T1, IgG1-Fc (RED Systems; 110-HG-100) (UniProt P01857-1 100-330 = IgG part); assay: Sulfo-SBED photo-crosslinking to HL-60 cells, Protein A pull-down, anti-PSGL-1 Western blot
T1 construct: domain: Fc; Negative control, coupled to Sulfo-SBED; also called negative isotype control IgG-Fc
Method: Also in these experiments, samples of VISTA-Fc fusion protein (described in Example I) and negative controls of an anti-CD28 antibody (BioXcell, BE0248) and IgG1-Fc (RED Systems; 110-HG-100) were covalently coupled to a bifunctional linker (Sulfo-SBED—ThermoFisher Scientific; 33073) using the manufacturing recommended conditions. The resulting samples were incubated with HL-60 cells for 30 min. at room temperature in a dark place. Crosslinking was photoactivated with a UV light source for 20 min. Cells were then lysed and a Protein A Sepharose pull-down was performed. A Western Blot using an anti-PSGL-1 polyclonal antibody (RED Systems; AF3345) or Streptavidin-HRP was performed on the samples.

VISTA-Fc fusion protein [2] = biological target: T2, VISTA-Fc fusion protein (human); assay: biosensor, VISTA-Fc immobilized; estimated affinity, called qualitative
T2 construct: The limits of the VISTA and Fc parts are marked only by underline and bold, which are not preserved
T2 chain: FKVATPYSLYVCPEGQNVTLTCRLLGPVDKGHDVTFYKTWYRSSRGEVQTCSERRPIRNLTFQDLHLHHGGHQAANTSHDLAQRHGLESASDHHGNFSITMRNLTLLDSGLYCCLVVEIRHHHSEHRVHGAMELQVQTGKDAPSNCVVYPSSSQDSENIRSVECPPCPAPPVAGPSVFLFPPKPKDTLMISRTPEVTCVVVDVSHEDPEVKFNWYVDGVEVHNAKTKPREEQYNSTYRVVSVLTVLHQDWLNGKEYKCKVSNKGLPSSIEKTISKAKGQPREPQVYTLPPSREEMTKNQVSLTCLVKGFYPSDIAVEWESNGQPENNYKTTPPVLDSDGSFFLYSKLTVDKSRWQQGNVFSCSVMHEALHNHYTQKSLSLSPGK

VISTA-Fc fusion protein [3] = biological target: T2, VISTA-Fc fusion protein; assay: biosensor, VISTA-Fc immobilized, PSGL-1B in flow (0.3-9.6 µM), HBS with Ca and Mg; two-state binding model
Method: (§1) The immobilized VISTA-Fc sample was equilibrated in HEPES buffered saline (HBS) containing calcium (1.5 mM calcium chloride) and magnesium (1.0 mM magnesium chloride). The same buffer was used as running buffer. Samples containing the PSGL-1A or PSGL-1B, which also contained calcium and magnesium, were flowed across a solid surface containing the immobilized VISTA-Fc at a flow rate of 60 μl/min, with 120 seconds of contact time and 300 seconds for dissociation after the surface was regenerated with a 3 second pulse of glycine (pH 1.5). Six difference concentrations of PSGL-1A and PSGL-1B were assayed (0.3 μM, 0.60 μM, 1.20 μM, 2.4 μM, 4.8 μM and 9.6 μM).
(§2) Two different analyses of the experiments were performed: (1) a two-state binding model; and (2) an equilibrium affinity analysis (1:1 model).

VISTA-Fc fusion protein [4] = biological target: T2, VISTA-Fc fusion protein; assay: biosensor, VISTA-Fc immobilized, PSGL-1B in flow (0.3-9.6 µM), HBS with Ca and Mg; equilibrium affinity analysis (1:1 model)
Method: as §1, §2

VISTA-Fc fusion protein [5] = biological target: T2, VISTA-Fc fusion protein; assay: biosensor, VISTA-Fc immobilized, PSGL-1A in flow (0.3-9.6 µM), HBS with Ca and Mg; equilibrium affinity analysis (1:1 model)
Method: as §1, §2

VISTA-Fc fusion protein [6] = biological target: T2, VISTA-Fc fusion protein; assay: biosensor, VISTA-Fc immobilized, PSGL-1A in flow (0.3-9.6 µM), HBS with Ca and Mg; two-state binding model
Method: as §1, §2

- binding result [1]: no binding
B1: P-selectin glycoprotein ligand 1 (PSGL-1) expressed on human cells (receptor)
chain: QATEYEYLDYDFLPETEPPEMLRNSTDTTPLTGPGTPESTTVEPAARRSTGLDAGGAVTELTTELANMGNLSTDSAAMEIQTTQPAATEAQTTPLAATEAQTTRLTATEAQTTPLAATEAQTTPPAATEAQTTQPTGLEAQTTAPAAMEAQTTAPAAMEAQTTPPAAMEAQTTQTTAMEAQTTAPEATEAQTTQPTATEAQTTPLAAMEALSTEPSATEALSMEPTTKRGLFIPFSVSSVTHKGIPMAASNLSVNYPVGAPDHISVKQCLLAILILALVATIFFVCTVVLAVRLSRKGHMYPVRNYSPTEMVCISSLLPDGGEGPSATANGGLSKAKSPGLTPEPREDREGDDLTLHSFLP
notes: Endogenous protein on cells; also called SELPLG; CD162

- Kd (VISTA-Fc fusion protein [2]): ~5 µM
- Kd (VISTA-Fc fusion protein [3]): 5.09 µM
- Kd (VISTA-Fc fusion protein [4]): 4.76 µM
B2: PSGL-1 construct B (Fc-fused PSGL-1 with IgG kappa signal sequence and tandem repeat unit) (Fc fusion)
chain: DQATEYEYLDYDFLPETEPPEMLRNSTDTTPLTGPGTPESTTVEPAARRSTGLDAGGAVTELTTELANMGNLSTDSAAMEIQTTQPAATEAQTTQPVPTEAQTTPLAATEAQTTRLTATEAQTTPLAATEAQTTPPAATEAQTTQPTGLEAQTTAPAAMEAQTTAPAAMEAQTTPPAAMEAQTTQTTAMEAQTTAPEATEAQTTQPTATEAQTTPLAAMEALSTEPSATEALSMEPTTKRGLFIPFSVSSVTHKGIPMAASNLSVNYPVGAPDHISVARSVECPPCPAPPVAGPSVFLFPPKPKDTLMISRTPEVTCVVVDVSHEDPEVKFNWYVDGVEVHNAKTKPREEQYNSTYRVVSVLTVLHQDWLNGKEYKCKVSNKGLPSSIEKTISKAKGQPREPQVYTLPPSREEMTKNQVSLTCLVKGFYPSDIAVEWESNGQPENNYKTTPPVLDSDGSFFLYSKLTVDKSRWQQGNVFSCSVMHEALHNHYTQKSLSLSPGK
notes: Its limits are marked only by italic, which is not preserved; Cells were co-transfected with GCNT1 and FUT3 glycosyltransferases; also called PSGL-1B

- Kd (VISTA-Fc fusion protein [2]): ~3 µM
- Kd (VISTA-Fc fusion protein [5]): 3.01 µM
- Kd (VISTA-Fc fusion protein [6]): 32.1 µM
B3: PSGL-1 construct A (Fc-fused PSGL-1 with IgG kappa signal sequence and propeptide sequence) (Fc fusion)
chain: QATEYEYLDYDFLPETEPPEMLRNSTDTTPLTGPGTPESTTVEPAARRSTGLDAGGAVTELTTELANMGNLSTDSAAMEIQTTQPAATEAQTTPLAATEAQTTRLTATEAQTTPLAATEAQTTPPAATEAQTTQPTGLEAQTTAPAAMEAQTTAPAAMEAQTTPPAAMEAQTTQTTAMEAQTTAPEATEAQTTQPTATEAQTTPLAAMEALSTEPSATEALSMEPTTKRGLFIPFSVSSVTHKGIPMAASNLSVARSVECPPCPAPPVAGPSVFLFPPKPKDTLMISRTPEVTCVVVDVSHEDPEVKFNWYVDGVEVHNAKTKPREEQYNSTYRVVSVLTVLHQDWLNGKEYKCKVSNKGLPSSIEKTISKAKGQPREPQVYTLPPSREEMTKNQVSLTCLVKGFYPSDIAVEWESNGQPENNYKTTPPVLDSDGSFFLYSKLTVDKSRWQQGNVFSCSVMHEALHNHYTQKSLSLSPGK
notes: Their limits are marked only by italic and bold, which are not preserved; Cells were co-transfected with GCNT1 and FUT3 glycosyltransferases for post-translational modification; also called PSGL-1A
